Experimental data published in the supplement of paper PMC6379048.

What was measured:
Experiment in all cases: Kd (EC50 corrected by depletion factor)
RBMS1 = target: T1, RBMS1 (UniProt P29558)
T1 sequence: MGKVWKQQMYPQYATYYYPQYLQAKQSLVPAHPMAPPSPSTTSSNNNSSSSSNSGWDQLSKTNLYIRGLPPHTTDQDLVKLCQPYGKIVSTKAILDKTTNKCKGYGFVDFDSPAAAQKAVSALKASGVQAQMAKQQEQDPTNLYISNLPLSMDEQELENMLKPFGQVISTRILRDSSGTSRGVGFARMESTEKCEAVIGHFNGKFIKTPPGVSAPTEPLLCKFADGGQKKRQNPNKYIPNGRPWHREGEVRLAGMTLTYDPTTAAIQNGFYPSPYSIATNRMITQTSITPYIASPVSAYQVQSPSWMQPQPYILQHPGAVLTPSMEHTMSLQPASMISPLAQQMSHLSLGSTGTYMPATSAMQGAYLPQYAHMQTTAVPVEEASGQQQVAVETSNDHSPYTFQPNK
Summary of the method: (§1)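 HEK293-FT lysate (2.5 mg protein/well) was treated with free RNA oligos (0 nM to 30 μM) for 1 h at 4°C, then with the same oligos on NHS-Sepharose beads for 30 min at 4°C. Bound proteins were quantified by label-free LC-MS/MS relative to the control. EC50 came from a four-parameter log-logistic fit, and Kd is EC50 times a protein-dependent depletion factor.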

ZFP36L2 = target: T2, ZFP36L2 (UniProt P47974)
T2 sequence: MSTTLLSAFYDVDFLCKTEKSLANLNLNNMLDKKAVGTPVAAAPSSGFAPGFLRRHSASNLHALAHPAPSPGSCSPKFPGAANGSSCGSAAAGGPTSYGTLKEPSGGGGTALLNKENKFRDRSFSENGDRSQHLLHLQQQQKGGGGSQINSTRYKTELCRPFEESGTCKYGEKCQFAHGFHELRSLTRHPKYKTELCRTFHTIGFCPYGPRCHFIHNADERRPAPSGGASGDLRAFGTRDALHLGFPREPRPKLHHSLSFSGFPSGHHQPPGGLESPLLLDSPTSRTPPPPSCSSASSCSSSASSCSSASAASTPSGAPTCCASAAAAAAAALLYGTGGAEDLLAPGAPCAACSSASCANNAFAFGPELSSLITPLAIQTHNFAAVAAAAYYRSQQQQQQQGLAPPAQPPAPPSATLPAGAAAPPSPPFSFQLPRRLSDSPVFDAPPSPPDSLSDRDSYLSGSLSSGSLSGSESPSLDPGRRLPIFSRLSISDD
Summary of the method: as §1

RBM17 = target: T3, RBM17 (UniProt Q96I25)
T3 sequence: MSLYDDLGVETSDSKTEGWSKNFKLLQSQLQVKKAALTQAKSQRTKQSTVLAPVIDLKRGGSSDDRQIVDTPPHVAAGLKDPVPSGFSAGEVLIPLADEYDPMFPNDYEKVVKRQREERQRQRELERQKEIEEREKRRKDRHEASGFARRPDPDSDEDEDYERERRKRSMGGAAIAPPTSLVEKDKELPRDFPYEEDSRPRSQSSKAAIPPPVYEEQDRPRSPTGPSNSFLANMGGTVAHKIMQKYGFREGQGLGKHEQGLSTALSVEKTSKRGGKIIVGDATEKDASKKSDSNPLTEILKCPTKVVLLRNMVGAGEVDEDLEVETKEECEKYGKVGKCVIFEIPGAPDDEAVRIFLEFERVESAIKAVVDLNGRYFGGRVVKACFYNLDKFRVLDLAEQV
Summary of the method: as §1

CSTF2 = target: T4, CSTF2 (UniProt P33240)
T4 sequence: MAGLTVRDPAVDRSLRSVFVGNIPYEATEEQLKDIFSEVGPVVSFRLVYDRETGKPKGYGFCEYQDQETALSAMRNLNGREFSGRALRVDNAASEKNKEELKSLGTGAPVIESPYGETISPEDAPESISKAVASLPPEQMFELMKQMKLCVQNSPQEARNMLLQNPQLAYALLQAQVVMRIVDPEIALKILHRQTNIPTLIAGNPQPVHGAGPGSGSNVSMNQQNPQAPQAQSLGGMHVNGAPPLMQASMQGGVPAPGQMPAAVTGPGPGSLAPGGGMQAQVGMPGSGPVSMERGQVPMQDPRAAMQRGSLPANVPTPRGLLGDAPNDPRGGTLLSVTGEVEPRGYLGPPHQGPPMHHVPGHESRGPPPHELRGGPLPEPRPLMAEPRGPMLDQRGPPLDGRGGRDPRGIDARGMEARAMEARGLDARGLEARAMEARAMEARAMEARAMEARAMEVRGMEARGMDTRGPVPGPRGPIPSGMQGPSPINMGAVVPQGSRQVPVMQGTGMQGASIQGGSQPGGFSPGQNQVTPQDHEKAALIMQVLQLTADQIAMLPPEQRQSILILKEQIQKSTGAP
Summary of the method: as §1

LSM3 = LSM3 (UniProt P62310)
Chain of LSM3 (P62310 whole entry): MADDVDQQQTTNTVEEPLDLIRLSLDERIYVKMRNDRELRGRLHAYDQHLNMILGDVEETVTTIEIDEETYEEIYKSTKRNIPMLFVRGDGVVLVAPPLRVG
Summary of the method: as §1

FUBP3 = target: T5, FUBP3 (UniProt Q96I24)
T5 sequence: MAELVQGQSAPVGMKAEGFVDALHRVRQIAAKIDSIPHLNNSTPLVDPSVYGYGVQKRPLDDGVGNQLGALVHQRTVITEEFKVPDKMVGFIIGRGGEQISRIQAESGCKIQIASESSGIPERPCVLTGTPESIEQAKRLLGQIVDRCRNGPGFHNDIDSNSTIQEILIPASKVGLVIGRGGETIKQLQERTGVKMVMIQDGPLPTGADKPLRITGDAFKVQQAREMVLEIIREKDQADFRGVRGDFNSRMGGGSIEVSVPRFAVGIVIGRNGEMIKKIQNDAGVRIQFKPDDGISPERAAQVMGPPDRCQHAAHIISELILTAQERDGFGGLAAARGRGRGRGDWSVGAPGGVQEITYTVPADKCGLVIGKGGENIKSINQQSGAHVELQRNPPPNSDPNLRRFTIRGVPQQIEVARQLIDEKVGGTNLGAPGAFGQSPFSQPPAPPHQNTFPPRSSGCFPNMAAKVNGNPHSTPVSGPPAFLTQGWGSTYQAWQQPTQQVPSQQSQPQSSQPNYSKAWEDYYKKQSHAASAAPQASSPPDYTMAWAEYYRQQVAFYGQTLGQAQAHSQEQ
Summary of the method: as §1

LRPPRC = LRPPRC (UniProt P42704)
Summary of the method: as §1

Sequence | Kd (RBMS1) [nM] | Kd (ZFP36L2) [nM] | Kd (RBM17) [nM] | Kd (CSTF2) [nM] | Kd (LSM3) [nM] | Kd (FUBP3) [nM] | Kd (LRPPRC) [nM]
AAUAAA | 156 | 357 | 940 | 7.84 | 45 | 245 | 1130
CUGUCCU |  |  |  |  |  |  | 1260
UAUUUAU | 114 | 11.1 | 59.9 | 286 | 307 | 241 | 
